From US20070231333A1, “ANTI-5T4 ANTIBODIES AND USES THEREOF” (Wyeth, priority 2006, published 2007)

How the values were obtained:
Assay in all cases: Epitope mapping ELISA, 5T4 ectodomain Fc fusions
Assay type in all cases: binding
Set-up in all cases: key: +: binding; −: no binding; +/−: partial binding
[1] = system: black-tailed marmoset 5T4 ectodomain Fc
Description: (§1) To identify the epitopes to which each of the A1, A2, A3, and H8 antibodies bind, ELISA assays were performed using (1) 5T4 ectodomain Fc constructs with deleted or mutated sequences, and (2) 5T4 chimera constructs transiently expressed in COS-1 cells. The ectodomain includes the amino-terminal region, two leucine-rich repeats, and the intervening hydrophilic region. Fusion proteins containing a 5T4 ectodomain and a Fc constant regions from human IgG1 were prepared using mouse 5T4 (amino acids 1-361), rat 5T4 (amino acids 1-361), cynomologous monkey 5T4 (amino acids 1-355), chimpanzee 5T4 (amino acids 1-355), and black-tailed marmoset (amino acids 1-355). The 5T4 chimera constructs are depicted in FIG. 5. The binding results are summarized in Table 5, which indicates specific binding, partial binding, or lack of binding, by each of the H8, A1, A2, and A3 antibodies.

[2] = system: chimpanzee 5T4 ectodomain Fc
Description: as §1

human 5T4 ectodomain Fc = molecular target: T1, human 5T4 ectodomain Fc (Homo sapiens, UniProt Q13641)
T1 construct: Human; 100; 1-355; made in house; host or cells: COS-1 cells (transient)
T1 sequence (Q13641 32-355): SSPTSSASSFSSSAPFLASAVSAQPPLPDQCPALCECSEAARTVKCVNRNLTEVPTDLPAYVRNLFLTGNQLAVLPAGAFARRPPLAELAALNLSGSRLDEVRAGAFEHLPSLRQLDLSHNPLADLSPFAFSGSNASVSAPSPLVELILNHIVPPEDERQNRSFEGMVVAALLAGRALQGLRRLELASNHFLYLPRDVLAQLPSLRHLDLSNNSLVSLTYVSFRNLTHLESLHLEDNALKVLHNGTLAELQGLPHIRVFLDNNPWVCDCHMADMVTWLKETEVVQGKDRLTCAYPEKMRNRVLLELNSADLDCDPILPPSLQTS
Description: as §1

Sequence of black-tailed marmoset 5T4 ectodomain Fc (as listed by the source): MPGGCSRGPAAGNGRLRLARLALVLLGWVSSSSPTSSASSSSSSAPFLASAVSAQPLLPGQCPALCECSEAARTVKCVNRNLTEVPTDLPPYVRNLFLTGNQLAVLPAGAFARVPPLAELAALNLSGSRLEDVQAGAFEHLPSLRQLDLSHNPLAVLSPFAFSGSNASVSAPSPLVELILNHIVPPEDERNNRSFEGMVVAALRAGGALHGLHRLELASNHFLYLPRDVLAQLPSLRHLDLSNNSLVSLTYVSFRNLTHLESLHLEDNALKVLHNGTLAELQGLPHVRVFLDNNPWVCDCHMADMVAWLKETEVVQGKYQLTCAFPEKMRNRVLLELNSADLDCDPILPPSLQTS

binding to 5T4 antigen construct [1]: + | binding to 5T4 antigen construct [2]: + | binding to 5T4 antigen construct (human 5T4 ectodomain Fc): +
B1: A2: murine anti-5T4 monoclonal antibody (IgG2b heavy chain); VH residues 19-135 of SEQ ID NO:6, VL residues 23-130 of SEQ ID NO:8 (antibody, listed as Mus musculus, V domains shown)
VH: MEWRIFLFILSGTAGVHSQVQLQQSRPELVKPGASVKMSCKASGYTFTDYVISWVKQRTGQGLEWIGEIYPGSNSIYYNEKFKGRATLTADKSSSTAYMQLSSLTSEDSAVYFCAMGGNYGFDYWGQGTTLTVSS
VL: MDFQVQIFSFLLISASVIMSRGQIVLTQSPAIMSASLGERVTLTCTASSSVNSNYLHWYQQKPGSSPKLWIYSTSNLASGVPARFSGSGSGTSYSLTISSMEAEDAATYYCHQYHRSPLTFGAGTKLELK
modifications: (1)..(18) leader sequence; (19)..(135) heavy chain variable region; (44)..(53) CDR1; (68)..(84) CDR2; (117)..(124) CDR3; (1)..(22) leader sequence; (23)..(130) light chain variable region; (46)..(56) CDR1; (73)..(79) CDR2; (112)..(120) CDR3
